T1: human TGF-beta 3 (RDI, Cat # RDI-1036/CF) (human, UniProt P10600 301-412)
T1 construct: Bought recombinant protein; also called TGF-β3; TGF-p3
T1 sequence (looked up): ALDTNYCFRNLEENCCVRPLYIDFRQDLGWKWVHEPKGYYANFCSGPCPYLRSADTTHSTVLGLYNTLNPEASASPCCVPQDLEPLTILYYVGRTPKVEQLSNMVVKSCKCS


How the values were obtained:
[1] = molecular target: human TGF-beta 1 (R&D Systems, Cat # 240-B/CF) (human) (UniProt P01137); test: calculated from KinExA Kd and kon
[2] = molecular target: human TGF-beta 1 (R&D Systems, Cat # 240-B/CF) (human) (UniProt P01137); test: KinExA 3000, equilibrium, Fab in solution
[3] = molecular target: human TGF-beta 1 (R&D Systems, Cat # 240-B/CF) (human) (UniProt P01137); test: KinExA 3000, Fab in solution, antigen on beads
[4] = molecular target: T2, human TGF-beta 1 (R&D Systems, Cat # 240-B/CF) (human, UniProt P01137 279-390); test: cell-based or functional assay
[5] = molecular target: T2, human TGF-beta 1 (R&D Systems, Cat # …); test: Biacore SPR, calculated koff/kon
Protocol: (§1) Alternate methods of measuring kinetic constants are known, for example: affinity of a binding composition for human TGF-beta 1 (R&D Systems, Cat #240-B/CF), TGF-beta 2 (RDI, Cat # RDI-1035) and TGF-beta 3 (RDI, Cat # RDI-1036/CF) is measured using a BlAcore® 2000 instrument. The BIAcore® utilizes the optical properties of surface plasmon resonance to detect alteration in protein concentration of interacting molecules within a dextran biosensor matrix. Except as noted, all reagents and materials are purchased from BIAcore® AB (Upsala, Sweden). All measurements are performed at room temperature. Samples are dissolved in HBS-EP buffer (150 mM sodium chloride, 3 mM EDTA, 0.01% (w/v) surfactant P-20, and 10 mM HEPES, pH7.4). Recombinant Protein A is immobilized on all four flow cells of a CM4 sensor chip at a level of 400-450 response units (RUs) using an amine coupling kit.
(§2) Binding is evaluated using multiple analytical cycles. Each cycle is performed at a flow rate of 50 μL/minute and consists of the following steps: injection of 12 μL of an antibody binding composition at 0.5 μg/mL, injection of 250 μL of TGF-beta 1 (starting at 5 nM and using two-fold serial dilutions to 0.13 nM for each cycle, with two injections for each concentration) followed by either a short (5 minutes) or long (120 minutes) delay for dissociation, and regeneration using two injections of 50VL of 10 mM glycine hydrochloride, pH1.5. Association and dissociation rates for each cycle are determined by fitting of the biosensor data using to a simple association model using ClampXP (Center for Biomolecular Interaction Analysis, Univ. of Utah) to extract the kₒₙ and koff rate constants; the equilibrium binding constant Kd is calculated using the relationship Kd=koff/kₒₙ. Model data for invention compositions are in Table 3 shown below.

[6] = molecular target: T1, human TGF-beta 3 (RDI, Cat # …); test: ratio of Biacore Kd for TGF-β3 to Kd for TGF-β1
Protocol: (§3) Affinities of binding composition mAbs for TGF-p3 are determined using BIAcore methods. All measurements are performed at room temperature. Samples are dissolved in HBS-EP buffer (150 mM sodium chloride, 3 mM EDTA, 0.01% (w/v) surfactant P-20, and 10 mM HEPES, pH7.4). Recombinant Protein A is immobilized on four flow cells of a CM4 sensor chip at a level of 400-450 response units (RUs) using an amine coupling kit. Binding is evaluated over multiple analytical cycles. Each cycle is performed at a flow rate of 100 μL/minute consisting of the following steps: injection of 15 μL of an antibody binding composition at 0.5 μg/mL, injection of 250 μL of TGF-β3 (starting at 5 nM and using two-fold serial dilutions to 0.13 nM for each cycle, with two injections for each concentration) followed by a short (5 minutes) delay for dissociation, and regeneration using two injections of 50VL of 10 mM glycine hydrochloride, pH1.5.
(§4) Affinities are determined based upon the equilibrium signal as reached at varying TGF-β3 concentrations by measuring the average signal during the last 10 seconds of the TGF-β3 injections, and then fitting the resulting signals at all of the TGF-β3 concentrations to a simple binding equilibrium model in SCRUBBER (Center for Biomolecular Interaction Analysis, Univ. of Utah). Model data determined for tested human mab composition of the invention of Kd and specificity calculated by dividing the Kd for TGF-β3 binding by the Kd for TGF-β1 binding (herein) is shown below in Table 5.

[7] = molecular target: T2, human TGF-beta 1 (R&D Systems, Cat # …); test: Biacore SPR, mAb captured on Protein A, TGF-beta 1 injected
Protocol: as §1, §2

[8] = molecular target: T1, human TGF-beta 3 (RDI, Cat # …); test: Biacore SPR, equilibrium fit, mAb captured on Protein A, TGF-β3 injected
Protocol: as §3, §4

[9] = molecular target: T2, human TGF-beta 1 (R&D Systems, Cat # …); test: Biacore SPR, mAb captured on Protein A, 5 nM ligand injected; stoichiometry from captured signals
Protocol: (§5) BIAcore methods are used to determine the ability of invention mAb compositions to bind other entities, specifically the latent form of TGF-beta 1 or TGF-beta 3. All measurements are performed at room temperature. Samples are dissolved in HBS-EP buffer (150 mM sodium chloride, 3 mM EDTA, 0.01% (w/v) surfactant P-20, and 10 mM HEPES, pH7.4). Recombinant Protein A is immobilized on all four flow cells of a CM4 sensor chip at a level of 400-450 response units (RUs) using an amine coupling kit.
(§6) Binding is evaluated using multiple analytical cycles. Each cycle is performed at a flow rate of 100 μL/minute consisting of the following steps: injection of 15 μL of an antibody binding composition at 1 μg/mL, injection of 250 μL of either 5 nM TGF-beta 1, 5 nM latent TGF-beta 1, or 5 nM TGF-beta 3 followed by a short delay (5 min) for dissociation, and regeneration using two injections of 50 μL of 10 mM glycine hydrochloride, pH1.5. The amount of signal after capturing first the Mab, and then the ligand, are determined using the instrument control software. Since the signal is proportional to the mass of protein captured, the stoichiometry of the captured ligand is readily calculable (Table 4).

latent TGF-beta 1 = molecular target: T3, latent TGF-beta 1 (UniProt P01137 30-390, limits assumed); test: as above
T3 construct: Latent complex (pro-peptide with mature TGF-beta 1); also called Latent TGF-β1; latent form of TGF-beta 1
Protocol: as §5, §6

[10] = molecular target: T1, human TGF-beta 3 (RDI, Cat # …); test: as above
Protocol: as §5, §6

T3 sequence (P01137 30-390 limits assumed): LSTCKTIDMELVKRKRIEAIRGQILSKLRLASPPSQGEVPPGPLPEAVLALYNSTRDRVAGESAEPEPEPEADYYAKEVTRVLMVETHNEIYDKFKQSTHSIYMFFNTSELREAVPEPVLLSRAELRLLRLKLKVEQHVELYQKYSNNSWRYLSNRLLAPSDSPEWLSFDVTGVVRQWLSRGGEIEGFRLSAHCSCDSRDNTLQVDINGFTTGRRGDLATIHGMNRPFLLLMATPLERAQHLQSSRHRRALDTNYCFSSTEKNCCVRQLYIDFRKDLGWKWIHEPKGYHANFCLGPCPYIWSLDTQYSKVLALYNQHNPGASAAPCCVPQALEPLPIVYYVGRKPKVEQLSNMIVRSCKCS

Binder | koff [1] [s⁻¹] | Kd [2] [nM] | kon [3] [M⁻¹ s⁻¹] | Fold Improvement in IC50 relative to mAb2471 (HT-2 cell proliferation assay) [4] [fold] | Kd [5] [nM] | Specificity (Kd, β3/Kd, β1) [6] [fold] | koff [7] [s⁻¹] | kon [7] [M⁻¹ s⁻¹] | Kd [8] [nM] | Stoichiometry of ligand binding [9] | Stoichiometry of ligand binding (latent TGF-beta 1) | Stoichiometry of ligand binding [10]
Fab C27 (Fab, V domains shown) VH: QVQLVQSGAEVKKPGASVKVSCKASGYTFTDYNIHWVRQAPGQGLEWMGYIYPYDGETGYNQKFKSRVTMTTDTSTSTAYMELRSLRSDDTAVYYCARGYRAFEYWGQGTLVTVSS VL: DIQMTQSPSSLSASVGDRVTITCRASSSVPYMHWYQQKPEKAPKSLIYATSNLAFGVPSRFSGSGSGTDFTLTISSLQPEDFATYYCQQWDLNPPAFGQGTKLEIK | 1.7e-05 | 0.0042 | 4.1e+06 | – | – | – | – | – | – | – | – | –
mAb 21D1 (antibody, human IgG4 S228P, kappa, V domains shown, Full-length IgG4 antibody; also called LA307-21D1) VH: QVQLVQSGAEVKKPGASVKVSCKASGYTFTDYNIHWVRQAPGQGLEWMGYIYPYDGETGYNQKFKSRVTMTTDTSTSTAYMELRSLRSDDTAVYYCARGYRWFAYWGQGTLVTVSS VL: DIQMTQSPSSLSASVGDRVTITCRASSSVPYMHWFQQKPGKAPKSLIYATSNPAYGVPSRFSGSGSGTDFTLTISSLQPEDFATYYCQQWDLNPPAFGQGTKLEIKR | – | – | – | 107 | < 0.0005 | 9800 | < 6e-06 | 1.3e+07 | 4.9 | 1.29 | 0.05 | 0.16

Continued, values first:

koff [1] [s⁻¹] | Kd [2] [nM] | kon [3] [M⁻¹ s⁻¹] | Fold Improvement in IC50 relative to mAb2471 (HT-2 cell proliferation assay) [4] [fold] | Kd [5] [nM] | Specificity (Kd, β3/Kd, β1) [6] [fold] | koff [7] [s⁻¹] | kon [7] [M⁻¹ s⁻¹] | Kd [8] [nM] | Stoichiometry of ligand binding [9] | Stoichiometry of ligand binding (latent TGF-beta 1) | Stoichiometry of ligand binding [10] | Binder
– | – | – | 391 | 0.0009 | 621 | 1.4e-05 | 1.6e+07 | 0.53 | 1.55 | 0.03 | – | mAb DM4 (antibody, human IgG4 S228P, kappa, V domains shown, Full-length IgG4 antibody; also called LA307-DM4) VH: QVQLVQSGAEVKKPGASVKVSCKASGYDFTDYNIHWVRQAPGQGLEWMGYIYPYDGETGYNQKFKSRVTMTTDTSTSTAYMELRSLRSDDTAVYYCARGYRWLAYWGQGTLVTVSS VL: DIQMTQSPSSLSASVGDRVTITCRASSSVSYMHWYQQKPGKAPKPLIYATSNLAYGVPSRFSGSGSGTDFTLTISSLQPEDFATYYCQQWDLNPPAFGQGTKLEIKR
– | – | – | 234 | 0.0008 | 1050 | 1e-05 | 1.9e+07 | 0.66 | 1.63 | 0.07 | 1.26 | mAb 23A3 (antibody, IgG4, V domains shown) VH: QVQLVQSGAEVKKPGASVKVSCKASGYDFTDYNMVWVRQAPGQGLEWMGSIYPYDGETGYNQKFKSRVTMTTDTSTSTAYMELRSLRSDDTAVYYCARGYRAFEYWGQGTLVTVSS VL: DIQMTQSPSSLSASVGDRVTITCRASSSVPYMHWYQQKPGKAPKLLIYATSNPAYGVPSRFSGSGSGTDFTLTISSLQPEDFATYYCQQWDLNPPAFGQGTKLEIK
– | – | – | 140 | < 0.0005 | 2320 | < 7e-06 | 1.3e+07 | 1.16 | 1.23 | 0.04 | 0.54 | mAb DM7 (antibody, IgG4, V domains shown) VH: QVQLVQSGAEVKKPGASVKVSCKASGYDFTDYNMHWVRQAPGQGLEWMGYIYPYDGETGYNQKFKSRVTMTTDTSTSTAYMELRSLRSDDTAVYYCARGYRWLYYWGQGTLVTVSS VL: DIQMTQSPSSLSASVGDRVTITCRASSSVSYMHWYQQKPGKAPKPLIYATSNLAKGVPSRFSGSGSGTDFTLTISSLQPEDFATYYCQQWDLNPPAFGQGTKLEIK
